In the Immune Epitope Database (IEDB):

Experiments:
Assay in all cases: IEDB peptide-MHC binding, purified MHC/competitive/radioactivity; filed as Kd, often an IC50 or EC50 that approximates it; ≥ and ≤ were set here for values at or beyond the usual limits of such assays
[1] = target: HLA-A*11:01
[2] = target: HLA-A*33:01
[3] = target: HLA-A*31:01
[4] = target: HLA-A*03:01
[5] = target: HLA-A*68:01
[6] = source organism: Vaccinia virus WR
[7] = source organism: SARS coronavirus Tor2
[8] = source organism: Dengue virus 4 Philippines/H241/1956
[9] = source organism: Dengue virus 2 Jamaica/1409/1983
[10] = source organism: Dengue virus 3 Martinique/1243/1999
[11] = source organism: Dengue virus 1 Brazil/97-11/1997
[12] = source organism: Mammarenavirus machupoense
[13] = source organism: Mammarenavirus guanaritoense
[14] = source organism: Lymphocytic choriomeningitis virus (strain Traub)

Sequence	Kd [1, 6] [nM]	Kd [2, 6] [nM]	Kd [3, 6] [nM]	Kd [4, 6] [nM]	Kd [5, 6] [nM]	further results
DLLNSMMNR	14800	4.04	42.3	2210	35.9	
GALHLYFDK						Kd [1, 7]: 0.928 nM; Kd [2, 7]: 15400 nM; Kd [3, 7]: 143 nM; Kd [4, 7]: 486 nM; Kd [5, 7]: 4970 nM
LTLFVEECLR						Kd [2, 8]: 60.7 nM; Kd [5, 8]: 56.2 nM
AMAFHLTTR						Kd [3, 9]: 1.57 nM; Kd [4, 9]: 56.3 nM
LQGPPGTGK						Kd [1, 7]: 40.1 nM; Kd [2, 7]: ≥ 77700 nM; Kd [3, 7]: 1260 nM; Kd [4, 7]: 459 nM; Kd [5, 7]: 10900 nM
ISYCRAFIY	0.358	3570	232	1.44	1.35	
KAKWLTPFEK	249	≥ 70000	115	212	11800	
MSHLKVALYR	100	66.5	2.25	609	31.2	
MKNKAWMVHR						Kd [3, 10]: 140 nM
ISNITTATR						Kd [3, 8]: 72.7 nM
VSIMIEEVMR						Kd [5, 11]: 202 nM
AIFTYTGGY	282	≥ 77700	7160	287	8380	
TSIFAGHLK						Kd [1, 10]: 39.1 nM; Kd [5, 10]: 4.3 nM
VLGLGLSLK	25.7	≥ 26800	1570	6.73	9650	
KSLVSAGSGK						Kd [4, 10]: 3.41 nM
YLALYNKYK						Kd [1, 7]: 1320 nM; Kd [2, 7]: 7980 nM; Kd [3, 7]: 941 nM; Kd [4, 7]: 201 nM; Kd [5, 7]: 913 nM
YIIRRSGCR	566	192	29.3	10500	64.1	
SNIQFNISK						Kd [1, 12]: 12.2 nM; Kd [2, 12]: 10900 nM; Kd [3, 12]: 1740 nM; Kd [4, 12]: 4910 nM; Kd [5, 12]: 15 nM
GVRFFFYTSK						Kd [1, 7]: 44.6 nM; Kd [2, 7]: 11000 nM; Kd [3, 7]: 488 nM; Kd [4, 7]: 88.9 nM; Kd [5, 7]: 121 nM
LQMAGVEVR	5760	6150	218	13900	2380	
MVDVSMMSMY	2040	≥ 30600	≥ 23900	2330	148	
TTRLENVMWK						Kd ([1]; source organism: Dengue virus 4 Dominica/814669/1981): 590 nM

Sequence	Kd [1, 6] [nM]	Kd [2, 6] [nM]	Kd [3, 6] [nM]	Kd [4, 6] [nM]	Kd [5, 6] [nM]	further results
ILSDENYLLK	29	14400	17000	57.5	2530	
RSKIEVGIRH						Kd [1, 13]: ≥ 29000 nM; Kd [2, 13]: ≥ 70000 nM; Kd [3, 13]: 1630 nM; Kd [4, 13]: 13700 nM; Kd [5, 13]: ≥ 22200 nM
LMHPDFCKNR	≥ 24500	254	16.9	13600	8450	
SSMLNIMNR						Kd [1, 11]: 10.4 nM; Kd [3, 11]: 11800 nM; Kd [5, 11]: 7.35 nM
LLLFADINGK						Kd [1, 7]: 508 nM; Kd [2, 7]: 17200 nM; Kd [3, 7]: ≥ 24100 nM; Kd [4, 7]: 136 nM; Kd [5, 7]: 9200 nM
QTVNICIFY	39.9	10500	839	828	1.96	
SFIISTLNK	5.35	8110	5.1	57.4	9.98	
DLIAMENLK	1350	586	19500	≥ 33500	16.2	
TMKAIEKDR	2620	675	227	≥ 25900	511	
TLNEYKQLY	124	7000	1350	56.7	1360	
SLIKTILASY	1050	≥ 43300	4570	97.5	1730	
YTLFQQTGR	551	24.1	50	3100	0.384	
VLCVKKFYK	8.82	162	1.32	25.2	344	
KIIHEWCCR						Kd [3, 11]: ≥ 59300 nM
IAQYKCVTIK	773	≥ 24100	5880	29.1	5860	
KCHDHYLCRH						Kd [1, 14]: ≥ 69700 nM; Kd [2, 14]: ≥ 70000 nM; Kd [3, 14]: 9650 nM; Kd [4, 14]: ≥ 24800 nM; Kd [5, 14]: ≥ 70100 nM
EGVYRIMQR						Kd [5, 8]: 215 nM
GTLGLECSPR						Kd [2, 10]: 23.6 nM; Kd [5, 10]: 106 nM
TAMAFHLTTR						Kd [2, 9]: 18.4 nM; Kd [3, 9]: 9.04 nM; Kd [5, 9]: 8.55 nM
TTRLENIMWK						Kd [1, 8]: 271 nM
TAASAAQRR						Kd [5, 10]: 24.9 nM
SSKIRWIVER						Kd [2, 8]: 389 nM; Kd [3, 8]: 17.1 nM
